Measured values as given in the RNAGym collection of RNA variant scans (doi:10.7554/elife.90254).

B1: LINE1-full (parent)
chain: UACGUAGGUGGUUUUCCCCUGAUAGUGCUAAGGGGGCCUGGAAGUUUGGACUGGGCAGAGCUCAACACAGCGUGGCAAAGUGGCUGUGGCUAGACUGCCUCUCUGGAUUCCUCGUCACUCAGCAGGGCAUCUCUGAGAGAAAUGCC

Variants of: B1
Test: self-cleavage, relative activity (ratio to wild type); higher = more cleavage; in vitro, sequencing; the parent is a self-cleaving ribozyme
Work on A92C C113U yielded a self-cleavage of 0.14.
In the case of U81A U104C, the self-cleavage is reported as 2.77.
A24G C146U showed a self-cleavage of 1.61.
Work on G53U A64G yielded a self-cleavage of 0.16.
With G106A U134G the self-cleavage was 1.86.
Variant A57U A138G has a self-cleavage of 0.15.
U62C C110A showed a self-cleavage of 0.05.
With U52C A121U the self-cleavage was 1.5.
Variant C38A A136G has a self-cleavage of 0.7.
Work on A69U A107G yielded a self-cleavage of 0.08.
Work on U45C G55A yielded a self-cleavage of 0.27.
Variant U12C C146U has a self-cleavage of 1.63.
G35U A140U gave a self-cleavage of 1.19.
A57C A65G gave a self-cleavage of 0.
U91A A136U showed a self-cleavage of 0.54.
G97A A141G gave a self-cleavage of 0.12.
For G83U A141G, the self-cleavage was 0.99.
In the case of U85G U132C, the self-cleavage is reported as 0.14.
Work on U119G C146U yielded a self-cleavage of 1.86.
Work on U100C U143A yielded a self-cleavage of 1.15.
G58A A117C gave a self-cleavage of 0.1.
Variant G49A A50G has a self-cleavage of 0.82.
With U15C A136C the self-cleavage was 1.99.
With U46C A50G the self-cleavage was 1.59.
In the case of U26C A129U, the self-cleavage is reported as 1.24.
For G21A A50G, the self-cleavage was 0.71.
For U46A U134A, the self-cleavage was 0.77.
Variant A43U U100C has a self-cleavage of 1.75.
For A2U C76U, the self-cleavage was 1.07.
Variant C38U U62A has a self-cleavage of 0.02.
For U26C U46A, the self-cleavage was 0.
C28G U39C showed a self-cleavage of 0.82.
With U12C A77G the self-cleavage was 1.8.
In the case of U91A U104A, the self-cleavage is reported as 0.46.
Work on A30U U39C yielded a self-cleavage of 0.85.
A57U U102C gave a self-cleavage of 0.13.
With A30U U115C the self-cleavage was 1.16.
Variant G125U U134C has a self-cleavage of 1.2.
With U81A C118U the self-cleavage was 1.78.
For A59G G89U, the self-cleavage was 0.02.
U15C A140G showed a self-cleavage of 1.59.
For A59U A138C, the self-cleavage was 1.23.
Variant U12C G106A has a self-cleavage of 1.68.
G80A A94G showed a self-cleavage of 0.23.
With G34A A64G the self-cleavage was 0.12.
With U45A A141G the self-cleavage was 1.06.
Work on U102A U132C yielded a self-cleavage of 1.69.
In the case of A92U A94G, the self-cleavage is reported as 0.05.
A79G C118U showed a self-cleavage of 2.23.
In the case of G54U A64G, the self-cleavage is reported as 0.21.
Work on U62C A107U yielded a self-cleavage of 0.06.
Work on U62A U104C yielded a self-cleavage of 0.1.
C17U U39C gave a self-cleavage of 0.92.
For C84A C131A, the self-cleavage was 0.18.
In the case of U39G A92G, the self-cleavage is reported as 0.
For A79G A129U, the self-cleavage was 1.16.
With G4C A107U the self-cleavage was 1.49.
Variant G27A U115C has a self-cleavage of 1.54.
In the case of U73A C118U, the self-cleavage is reported as 1.25.
U20C A59G showed a self-cleavage of 0.11.
With A79G U96A the self-cleavage was 0.09.
In the case of G10U A42G, the self-cleavage is reported as 0.
Variant A22C U85C has a self-cleavage of 0.35.
Variant U20C A136C has a self-cleavage of 1.74.
U9C G49U showed a self-cleavage of 1.08.
Variant G48U A136G has a self-cleavage of 1.19.
Variant U39G U85A has a self-cleavage of 0.
With U29C A94U the self-cleavage was 0.56.
U45G A78G gave a self-cleavage of 1.13.
In the case of U12C U45C, the self-cleavage is reported as 0.98.
U12A A141U showed a self-cleavage of 0.64.
Work on C28U G54A yielded a self-cleavage of 0.65.
With G44U A69G the self-cleavage was 0.66.
Work on A69U U119A yielded a self-cleavage of 0.03.
In the case of U134A U143A, the self-cleavage is reported as 0.77.
G83A G127A showed a self-cleavage of 0.52.
Work on G72C U108G yielded a self-cleavage of 0.96.
In the case of U39C C90G, the self-cleavage is reported as 0.03.
A124G G135U gave a self-cleavage of 1.49.
With U15C G86A the self-cleavage was 0.06.
U85C U100C gave a self-cleavage of 0.28.
U100C U132A showed a self-cleavage of 2.37.
Work on C76U A141C yielded a self-cleavage of 1.29.
G114A U143G showed a self-cleavage of 1.41.
G114A U143C showed a self-cleavage of 1.02.
In the case of A6U U15C, the self-cleavage is reported as 1.09.
With A65G A141G the self-cleavage was 0.07.
U39C G83U showed a self-cleavage of 0.52.
With A31U U100A the self-cleavage was 0.67.
With C3A U73A the self-cleavage was 0.64.
With U14A C131U the self-cleavage was 0.21.
Work on G106A A124G yielded a self-cleavage of 1.81.
Variant C61U A65C has a self-cleavage of 0.03.
A67G C101U showed a self-cleavage of 0.75.
Variant U23C G72U has a self-cleavage of 0.
U20G A77G gave a self-cleavage of 1.36.
Variant G55C A142G has a self-cleavage of 0.06.
G36A C116U showed a self-cleavage of 1.41.
U12G A30U gave a self-cleavage of 0.83.
Work on A2G U102G yielded a self-cleavage of 0.
For C56U A92G, the self-cleavage was 0.06.
In the case of A24G A92G, the self-cleavage is reported as 0.2.
Variant U9A U23C has a self-cleavage of 0.93.
G36A A57G gave a self-cleavage of 1.52.
In the case of G70A U130A, the self-cleavage is reported as 0.15.
U119C A141C gave a self-cleavage of 1.84.
In the case of U115A A138G, the self-cleavage is reported as 1.29.
Variant A79G A121U has a self-cleavage of 1.13.
Work on A43G A142G yielded a self-cleavage of 1.5.
With U45A A117G the self-cleavage was 1.48.
A2G A64U showed a self-cleavage of 0.88.
A57G U119A gave a self-cleavage of 0.85.
U47A U85C showed a self-cleavage of 0.12.
A50G U132G showed a self-cleavage of 1.15.
Work on U12G A141U yielded a self-cleavage of 1.29.
With C28G U100A the self-cleavage was 0.81.
For G70U U119C, the self-cleavage was 0.07.
For A24G U26A, the self-cleavage was 0.84.
For C61A A140G, the self-cleavage was 0.05.
Work on G8A C113A yielded a self-cleavage of 1.31.
For U102C G114A, the self-cleavage was 1.21.
For U20A C38A, the self-cleavage was 1.01.
For A59G U96A, the self-cleavage was 0.07.
Work on G27A U62C yielded a self-cleavage of 0.08.
With A57G C71G the self-cleavage was 0.07.
In the case of A24G G32A, the self-cleavage is reported as 1.13.
In the case of U26G G139A, the self-cleavage is reported as 1.47.
Variant U1C U14A has a self-cleavage of 0.81.
For A136C U143A, the self-cleavage was 1.51.
Variant C120A A140G has a self-cleavage of 1.32.
A57G U143C gave a self-cleavage of 0.81.
Variant A2G C3U has a self-cleavage of 0.65.
In the case of U9A G144A, the self-cleavage is reported as 1.19.
For A78C A138G, the self-cleavage was 1.84.
A79G A136G showed a self-cleavage of 1.42.
C28U gave a self-cleavage of 1.08.
Work on U9A U87A yielded a self-cleavage of 0.15.
U14G A129G showed a self-cleavage of 0.84.
For G49A A65U, the self-cleavage was 0.04.
With U15C G135U the self-cleavage was 1.21.
Variant U115G A121G has a self-cleavage of 1.62.
With A2G G4U the self-cleavage was 0.4.
Work on U9A yielded a self-cleavage of 1.05.
In the case of A92U U115C, the self-cleavage is reported as 0.72.
Variant A31G G83A has a self-cleavage of 0.69.
G48A A64U showed a self-cleavage of 0.39.
With U102C U112A the self-cleavage was 1.44.
With U39C A129G the self-cleavage was 1.61.
U73G U115C showed a self-cleavage of 2.26.
In the case of A22U U23C, the self-cleavage is reported as 0.87.
U1C U119A showed a self-cleavage of 1.47.
A69G C90U showed a self-cleavage of 0.07.
In the case of A67G A140G, the self-cleavage is reported as 0.42.
Work on U73C A138G yielded a self-cleavage of 2.26.
In the case of U1C U112C, the self-cleavage is reported as 2.17.
With U29A C133U the self-cleavage was 0.85.
Work on U26A A42G yielded a self-cleavage of 1.02.
U62G U130C showed a self-cleavage of 0.11.
Work on A69G U85A yielded a self-cleavage of 0.09.
With U9G U100C the self-cleavage was 1.61.
With A59G A67G the self-cleavage was 0.08.
In the case of U15C A94G, the self-cleavage is reported as 0.34.
C19U A117U gave a self-cleavage of 1.28.
For G72U U134C, the self-cleavage was 1.24.
A59C U87A gave a self-cleavage of 0.04.
A24G U87A showed a self-cleavage of 0.03.
For U62C A140U, the self-cleavage was 0.04.
